The values below come from article PMC3642328, “Ataxia Telangiectasia-Mutated (ATM) Kinase Activity Is Regulated by ATP-driven Conformational Changes in the Mre11/Rad50/Nbs1 (MRN) Complex*^([image sbox.jpg])” (The Journal of Biological Chemistry, 2013).

Sequences and labels used below:
B1: Nbs1 (wild-type) (natural protein, human, UniProt O60934 1-754, looked up)
chain: MWKLLPAAGPAGGEPYRLLTGVEYVVGRKNCAILIENDQSISRNHAVLTANFSVTNLSQTDEIPVLTLKDNSKYGTFVNEEKMQNGFSRTLKSGDGITFGVFGSKFRIEYEPLVACSSCLDVSGKTALNQAILQLGGFTVNNWTEECTHLVMVSVKVTIKTICALICGRPIVKPEYFTEFLKAVESKKQPPQIESFYPPLDEPSIGSKNVDLSGRQERKQIFKGKTFIFLNAKQHKKLSSAVVFGGGEARLITEENEEEHNFFLAPGTCVVDTGITNSQTLIPDCQKKWIQSIMDMLQRQGLRPIPEAEIGLAVIFMTTKNYCDPQGHPSTGLKTTTPGPSLSQGVSVDEKLMPSAPVNTTTYVADTESEQADTWDLSERPKEIKVSKMEQKFRMLSQDAPTVKESCKTSSNNNSMVSNTLAKMRIPNYQLSPTKLPSINKSKDRASQQQQTNSIRNYFQPSTKKRERDEENQEMSSCKSARIETSCSLLEQTQPATPSLWKNKEQHLSENEPVDTNSDNNLFTDTDLKSIVKNSASKSHAAEKLRSNKKREMDDVAIEDEVLEQLFKDTKPELEIDVKVQKQEEDVNVRKRPRMDIETNDTFSDEAVPESSKISQENEIGKKRELKEDSLWSAKEISNNDKLQDDSEMLPKKLLLTEFRSLVIKNSTSRNPSGINDDYGQLKNFKKFKKVTYPGAGKLPHIIGGSDLIAHHARKNTELEEWLRQEMEVQNQHAKEESLADDLFRYNPYLKRRR
notes: wild-type Nbs1, component of the human MRN complex; expressed from transfer vector pTP288 / bacmid pTP291; Used apart from MR (added to MR complexes, coated on PMMA beads); source: Sf21 insect cells, baculovirus, purified
B2: Mre11/Rad50(DelCC) complex (Rad50 coiled-coil region replaced with a linker) (complex, human)
chain 1: MSTADALDDENTFKILVATDIHLGFMEKDAVRGNDTFVTLDEILRLAQENEVDFILLGGDLFHENKPSRKTLHTCLELLRKYCMGDRPVQFEILSDQSVNFGFSKFPWVNYQDGNLNISIPVFSIHGNHDDPTGADALCALDILSCAGFVNHFGRSMSVEKIDISPVLLQKGSTKIALYGLGSIPDERLYRMFVNKKVTMLRPKEDENSWFNLFVIHQNRSKHGSTNFIPEQFLDDFIDLVIWGHEHECKIAPTKNEQQLFYISQPGSSVVTSLSPGEAVKKHVGLLRIKGRKMNMHKIPLHTVRQFFMEDIVLANHPDIFNPDNPKVTQAIQSFCLEKIEEMLENAERERLGNSHQPEKPLVRLRVDYSGGFEPFSVLRFSQKFVDRVANPKDIIHFFRHREQKEKTGEEINFGKLITKPSEGTTLRVEDLVKQYFQTAEKNVQLSLLTERGMGEAVQEFVDKEEKDAIEELVKYQLEKTQRFLKERHIDALEDKIDEEVRRFRETRQKNTNEEDDEVREAMTRARALRSQSEESASAFSADDLMSIDLAEQMANDSDDSISAATNKGRGRGRGRRGGRGQNSASRGGSQRGRADTGLETSTRSRNSKTAVSASRNMSIIDAFKSTRQQPSRNVTTKNYSEVIEVDESDVEEDIFPTTSKTDQRWSSTSSSKIMSQSQVSKGVDFESSEDDDDDPFMNTSSLRRNRR
chain 2: MSRIEKMSILGVRSFGIEDKDKQIITFFSPLTILVGPNGAGKTTIIECLKYICTGDFPPGTKGNTFVHDPKVAQETDVRAQIRLQFRDVNGELIAVQRSMVCTQKSKKTEFKTLEGVITRTKHGEKVSLSSKCAEIDREMISSLGVSKAVLNNVIFCHQEDSNWPLSEGKALKQKFDEIFSATRYIKALETLRQVRQTQGQKVKEYQMELKYLKQYPPAAAGGYREMMIVMRTTELVNKDLDIYYKTLDQAIMKFHSMKMEEINKIIRDLWRSTYRGQDIEYIEIRSDADENVSASDKRRNYNYRVVMLKGDTALDMRGRCSAGQKVLASLIIRLALAETFCLNCGIIALDEPTTNLDRENIESLAHALVEIIKSRSQQRNFQLLVITHDEDFVELLGRSEYVEKFYRIKKNIDQCSEIVKCSVSSLGFNVH
notes: wild-type human Mre11 (pTP813), as the Mre11 chain of m2; human Rad50 N terminus, amino acids 1-216; linker peptide between the two Rad50 domains; human Rad50 C terminus, amino acids 1104-1312; The His tag is inferred from the vector name only; also called MR(DelCC); DelCC MR; source: Sf21 insect cells, coexpression with baculovirus (Bac-to-Bac), purified
B3: TP2151/TP2109 (dsDNA)
DNA 1: CTTGCATGCCTCAGCTATTCCGGATTATTCATACCGTCCCA
DNA 2: TGGGACGGTATGAATAATCCGGAATAGCTGAGGCATGCAAGTCTA

For one data set, the target named is T1, ATM (Homo sapiens, UniProt Q13315, Y2755A).
T1 construct: full-length, Flag-tagged and HA-tagged, transiently expressed in human 293T cells, purified as dimer
T1 sequence (Q13315 2-3056 Y2755A): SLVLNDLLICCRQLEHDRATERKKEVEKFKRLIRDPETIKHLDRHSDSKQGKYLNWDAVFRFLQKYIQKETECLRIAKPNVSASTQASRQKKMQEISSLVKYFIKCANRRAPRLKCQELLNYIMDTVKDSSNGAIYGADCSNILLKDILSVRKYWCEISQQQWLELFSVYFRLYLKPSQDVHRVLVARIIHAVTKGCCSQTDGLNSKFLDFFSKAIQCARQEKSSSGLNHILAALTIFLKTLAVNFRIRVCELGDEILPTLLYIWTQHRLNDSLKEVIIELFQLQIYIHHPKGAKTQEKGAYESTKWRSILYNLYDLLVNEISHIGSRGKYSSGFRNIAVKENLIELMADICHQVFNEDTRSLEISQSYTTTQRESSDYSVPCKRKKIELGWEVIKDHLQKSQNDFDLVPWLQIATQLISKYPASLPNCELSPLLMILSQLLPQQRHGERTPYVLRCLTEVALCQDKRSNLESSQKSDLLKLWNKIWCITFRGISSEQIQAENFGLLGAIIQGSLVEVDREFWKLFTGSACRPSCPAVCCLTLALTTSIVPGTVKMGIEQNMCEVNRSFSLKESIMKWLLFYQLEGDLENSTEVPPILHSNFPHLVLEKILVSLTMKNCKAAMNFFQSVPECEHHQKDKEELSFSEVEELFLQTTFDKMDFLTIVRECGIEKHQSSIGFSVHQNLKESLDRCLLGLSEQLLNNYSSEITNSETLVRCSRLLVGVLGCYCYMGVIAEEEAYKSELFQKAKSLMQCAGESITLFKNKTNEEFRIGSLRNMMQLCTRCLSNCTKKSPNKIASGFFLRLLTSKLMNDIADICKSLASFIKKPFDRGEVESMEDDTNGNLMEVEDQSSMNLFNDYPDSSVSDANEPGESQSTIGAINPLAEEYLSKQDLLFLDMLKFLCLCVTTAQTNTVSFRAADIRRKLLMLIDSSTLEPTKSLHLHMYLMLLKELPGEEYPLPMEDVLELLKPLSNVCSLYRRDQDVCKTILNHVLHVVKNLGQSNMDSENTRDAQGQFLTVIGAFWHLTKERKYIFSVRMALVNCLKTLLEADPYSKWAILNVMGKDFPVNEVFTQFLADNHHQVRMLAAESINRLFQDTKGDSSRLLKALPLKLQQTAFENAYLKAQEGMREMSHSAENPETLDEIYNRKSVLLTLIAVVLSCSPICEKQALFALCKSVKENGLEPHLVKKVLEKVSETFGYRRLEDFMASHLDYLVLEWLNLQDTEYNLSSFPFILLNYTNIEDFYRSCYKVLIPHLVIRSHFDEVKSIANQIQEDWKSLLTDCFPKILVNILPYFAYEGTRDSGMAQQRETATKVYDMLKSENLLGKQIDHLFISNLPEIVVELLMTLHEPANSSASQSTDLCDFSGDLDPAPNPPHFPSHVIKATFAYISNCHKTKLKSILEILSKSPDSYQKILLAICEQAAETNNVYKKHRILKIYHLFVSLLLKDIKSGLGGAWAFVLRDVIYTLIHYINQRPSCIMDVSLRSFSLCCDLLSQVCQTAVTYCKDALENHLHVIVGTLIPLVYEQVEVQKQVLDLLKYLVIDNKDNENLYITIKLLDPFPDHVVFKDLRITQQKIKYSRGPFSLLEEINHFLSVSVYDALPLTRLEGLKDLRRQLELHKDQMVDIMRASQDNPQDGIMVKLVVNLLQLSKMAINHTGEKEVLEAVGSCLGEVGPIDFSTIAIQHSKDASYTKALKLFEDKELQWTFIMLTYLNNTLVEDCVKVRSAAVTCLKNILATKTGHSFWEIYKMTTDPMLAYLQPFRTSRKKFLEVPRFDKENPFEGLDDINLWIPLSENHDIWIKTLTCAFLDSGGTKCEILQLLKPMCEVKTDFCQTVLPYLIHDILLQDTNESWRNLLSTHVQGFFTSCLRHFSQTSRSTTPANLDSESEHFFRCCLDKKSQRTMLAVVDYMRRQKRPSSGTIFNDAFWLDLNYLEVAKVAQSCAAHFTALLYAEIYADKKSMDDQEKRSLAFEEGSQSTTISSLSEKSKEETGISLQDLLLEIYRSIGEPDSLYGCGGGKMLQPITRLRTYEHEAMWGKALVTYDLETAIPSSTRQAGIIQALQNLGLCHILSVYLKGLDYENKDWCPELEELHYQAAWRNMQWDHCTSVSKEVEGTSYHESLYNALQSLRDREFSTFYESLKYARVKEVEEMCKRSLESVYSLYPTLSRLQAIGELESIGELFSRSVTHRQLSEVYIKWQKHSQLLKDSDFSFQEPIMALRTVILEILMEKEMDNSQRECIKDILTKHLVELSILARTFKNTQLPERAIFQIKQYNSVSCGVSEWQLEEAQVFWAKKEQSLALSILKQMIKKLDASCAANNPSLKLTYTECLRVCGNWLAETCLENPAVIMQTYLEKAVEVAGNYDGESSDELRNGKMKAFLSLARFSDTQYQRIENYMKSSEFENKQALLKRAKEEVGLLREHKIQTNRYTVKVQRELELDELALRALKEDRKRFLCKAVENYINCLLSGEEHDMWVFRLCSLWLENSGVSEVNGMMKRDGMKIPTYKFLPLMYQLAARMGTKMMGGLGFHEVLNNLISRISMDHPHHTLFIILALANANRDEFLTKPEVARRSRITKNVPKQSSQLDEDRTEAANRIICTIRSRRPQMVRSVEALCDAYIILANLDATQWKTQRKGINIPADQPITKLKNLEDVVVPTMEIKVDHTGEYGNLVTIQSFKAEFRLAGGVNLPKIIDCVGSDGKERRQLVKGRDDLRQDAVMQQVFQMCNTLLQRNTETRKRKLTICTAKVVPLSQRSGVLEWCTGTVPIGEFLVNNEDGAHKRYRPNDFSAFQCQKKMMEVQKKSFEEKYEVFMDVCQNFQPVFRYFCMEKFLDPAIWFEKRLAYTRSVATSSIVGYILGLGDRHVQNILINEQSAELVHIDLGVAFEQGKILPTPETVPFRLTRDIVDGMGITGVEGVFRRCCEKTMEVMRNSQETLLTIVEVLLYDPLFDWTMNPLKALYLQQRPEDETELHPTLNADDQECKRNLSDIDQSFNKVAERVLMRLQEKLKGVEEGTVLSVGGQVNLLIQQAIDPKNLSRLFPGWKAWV
The data set can be described thus: kinase assay, GST-p53 Ser-15 phosphorylation, Western blot. The data set is classed as biochemical. The note with it: H2O2-activated ATM without MRN; analog 1 mM; pH 7.5, 5 mM Mg, 30 C. On the technique in general: A western blot detects proteins with antibodies after separation by electrophoresis.

Data set [1] concerns the target Mre11/Rad50 (MR) complex, wild-type full-length (human) (UniProt P49959). The data set is described as follows: scanning force microscopy (SFM); protein alone: 3 nM human MR in 25 mM Tris-HCl pH 8.0, 10% glycerol, 100 mM NaCl, 1 mM DTT; diluted 5-fold in 10 mM HEPES pH 8.0, 20 mM MgCl2, deposited on mica, imaged in air by tapping mode; forms counted by the number of Rad50 coiled-coils.

Data set [2] has as its target T2, Mre11/Rad50(C2G) complex (Rad50 C681G/C684G) (human, UniProt P49959 1-708; Q92878 1-1312, C681G | C684G).
T2 construct: wild-type human Mre11 (pTP813), as the Mre11 chain of m2; human Rad50 with both zinc hook cysteines mutated; made by QuikChange mutagenesis from pTP11 (the wild-type Rad50 of m2); Zinc hook mutant; also called MR(C2G); C2G MR complex; source: Sf21 insect cells, coexpression with baculovirus, purified
The data set is described as follows: KinExA (kinetic exclusion assay); in the presence of ATP (concentration not stated); 1, 5 and 25 nM MR incubated with 6.1 pM to 400 nM Nbs1 (2-fold dilutions) 1 h at room temperature; free MR captured on Nbs1-coated PMMA beads, detected with anti-Mre11 and Cy5 secondary antibody; PBS; n-Curve Analysis. Conditions: both partners purified. Background: Kinetic exclusion samples the free partner from a solution-phase mixture.

In data set [3] the target is T3, Mre11/Rad50 (MR) complex, wild-type full-length (human, UniProt P49959 1-708; Q92878 1-1312).
T3 construct: wild-type human Mre11, transfer vector pTP813 / bacmid pTP814; wild-type human Rad50, transfer vector pTP11; 1312 residues by the printed construct limits; The unit written here is one Mre11 with one Rad50; also called wild-type MR; human MR; source: Sf21 insect cells, coexpression with baculovirus, purified
The description is as above. The note with it: both partners purified.

Data set [4] has as its target T4, Mre11/Rad50(C2G) complex (Rad50 C681G/C684G) (human, UniProt P49959 1-708; Q92878 1-1312, C681G | C684G). The data set is described as follows: -ATP.
Data set [5] has as its target T4, Mre11/Rad50(C2G) complex (Rad50 …. The data set can be described thus: +ATP.
Data set [6] has as its target T3, Mre11/Rad50 (MR) complex, wild-type …. The data set is described as follows: KinExA (kinetic exclusion assay); without ATP; 1, 5 and 25 nM MR incubated with 6.1 pM to 400 nM Nbs1 (2-fold dilutions) 1 h at room temperature; free MR captured on Nbs1-coated PMMA beads, detected with anti-Mre11 and Cy5 secondary antibody; PBS; n-Curve Analysis. The note with it: both partners purified.

The target of data set [7] is B1. The data set is described as follows: KinExA (kinetic exclusion assay); in the presence of ATP (concentration not stated); 1, 5 and 25 nM MR incubated with 6.1 pM to 400 nM Nbs1 (2-fold dilutions) 1 h at room temperature; free MR captured on Nbs1-coated PMMA beads, detected with anti-Mre11 and Cy5 secondary antibody; PBS; n-Curve Analysis. The note with it: both partners purified.

In data set [8] the target is B1. The data set is described as follows: KinExA (kinetic exclusion assay); without ATP; 1, 5 and 25 nM MR incubated with 6.1 pM to 400 nM Nbs1 (2-fold dilutions) 1 h at room temperature; free MR captured on Nbs1-coated PMMA beads, detected with anti-Mre11 and Cy5 secondary antibody; PBS; n-Curve Analysis. The note with it: both partners purified.
The target of data set [9] is Mre11/Rad50/Nbs1 (MRN) wild-type (human, UniProt P49959;Q92878;O60934 1-708;1-1312;1-754). The data set is described as follows: EMSA; 0.5 mM AMP-PNP, 5 mM MgCl2, Nbs1 present, 100-200 nM MR; EMSA (Fig. 6A): 10 nM DNA, 25 mM MOPS pH 7.0, 20 mM Tris pH 8.0, 5 mM MgCl2, 8% glycerol, 80 mM NaCl, 2 mM DTT, 0.5 mM AMP-PNP, temperature not stated; SFM: 25. Conditions: protein: recombinant; chain copies: 2;2;2; label: Cy5 at 3' end of TP2109; 41 bp duplex, 4 nt 3' overhang on strand 2, other end blunt. In general terms: A gel shift assay detects complexes by their altered migration in electrophoresis.

The next data set concerns the target MR(C2G)N (human, UniProt P49959;Q92878;O60934 1-708;1-1312;1-754, C681G;C684G;Rad50). The data set can be described thus: EMSA; 0.5 mM AMP-PNP, 5 mM MgCl2, Nbs1 present; altered mobility and complex formation efficiency vs WT; EMSA (Fig. 6A): 10 nM DNA, 25 mM MOPS pH 7.0, 20 mM Tris pH 8.0, 5 mM MgCl2, 8% glycerol, 80 mM NaCl, 2 mM DTT, 0.5 mM AMP-PNP, temperature not stated; SFM: 25. Conditions: protein: recombinant; chain copies: 2;2;1; label: Cy5 at 3' end of TP2109; 41 bp duplex, 4 nt 3' overhang on strand 2, other end blunt.

Values joined by “and” are separate entries in the source; they are usually repeats but may differ in a detail not shown here. Equal entries are not always repeated.

As to `O=P(O)(O)OP(=O)(O)OP(=O)(O)OC[C@H]1O[C@@H](n2cnc3c(NCc4ccco4)ncnc32)[C@H](O)[C@@H]1O` [N6-(furfuryl)-ATP, N6-furfuryladenosine-5′-O-triphosphate], the “kinase assay, GST-p53 Ser-15 phosphorylation, Western blot” value at ATM was “This nucleotide was utilized by Y2755A ATM but not by wild-type ATM”.
Regarding “Mre11/Rad50 (MR) complex, wild-type full-length, P49959 1-708; Q92878 1-1312”, the stoichiometry N – broadly, the number of molecules, sites or subunits per partner or assembly – in data set [1] was 2 and > 4.
In the case of B1, the “fold higher affinity in the presence of ATP than in the absence of ATP” value in [2] is roughly 70 fold. Further, the Kd (as a rule, a measure of binding affinity in units of concentration) in data set [3] was found to be 3.82 pM; in data set [4], 7300 pM; in data set [5], 110 pM; in data set [6], 9.17 pM.
In the case of B2, the dissociation constant (Kd) came out at 50.3 pM with Nbs1 (wild-type) [7] and 17700 pM in the data set with Nbs1 (wild-type) [8].
Regarding B3, the binding result (in data set [9]; with MR(C2G)N) was “binds” in each case.
